# Experimental data as given in paper PMC8654288, “Structural basis of DegP protease temperature-dependent activation” (Science Advances, 2021).
# Several values for one entry are separate records, joined by “and”; a condition that tells them apart may be missing. Equal entries are not always repeated. No end group written: not given here. NO3 = not defined here
# T1: DegP^S210A,Y444A (E. coli K12), P0C0V0
# T1 chain: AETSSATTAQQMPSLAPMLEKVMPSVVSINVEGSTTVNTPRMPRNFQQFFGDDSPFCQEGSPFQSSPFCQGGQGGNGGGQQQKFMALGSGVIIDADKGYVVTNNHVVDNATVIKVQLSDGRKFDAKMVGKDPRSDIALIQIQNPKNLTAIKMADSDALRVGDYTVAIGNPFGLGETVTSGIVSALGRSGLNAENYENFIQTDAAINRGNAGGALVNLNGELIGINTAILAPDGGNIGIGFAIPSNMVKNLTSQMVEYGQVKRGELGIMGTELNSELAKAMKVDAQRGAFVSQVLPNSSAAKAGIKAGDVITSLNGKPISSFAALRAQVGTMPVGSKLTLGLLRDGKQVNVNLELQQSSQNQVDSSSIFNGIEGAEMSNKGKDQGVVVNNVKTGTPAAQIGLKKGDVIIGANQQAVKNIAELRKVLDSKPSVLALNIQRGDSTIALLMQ
# T2: DegP PDZ1 domain (DegP^261-354) (E. coli K12, UniProt P0C0V0 287-380)
# T2 construct: DegP protease, E. coli K12, PDZ1 domain, residues 261-354; numbers count on: the mature protein; [U-15N]-labelled when observed in NMR titrations; also called pDS10; source: E. coli BL21 Star (λ DE3), purified (Ni2+ Sepharose, SENP1 cleavage, Superdex 75 Increase SEC); not shown: His6-SUMO, N-terminal, cleaved
# T2 sequence (looked up): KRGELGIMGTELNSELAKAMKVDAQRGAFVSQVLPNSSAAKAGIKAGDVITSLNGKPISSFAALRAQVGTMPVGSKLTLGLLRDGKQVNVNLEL
# T3: biotinylated PDZ1 domain (E. coli K12, UniProt P0C0V0 287-380, biotin (EZ-Link NHS-PEG4-Biotin, molar ratio 1:1 at pH 6.0 to ensure preferential labeling of the N-terminal α-amino group))
# T3 construct: DegP protease, E. coli K12, PDZ1 domain, residues 261-354; numbers count on: the mature protein; m5 after biotinylation; immobilised on streptavidin biosensors; source: E. coli BL21 Star (λ DE3), purified, then biotinylated (EZ-Link NHS-PEG4-Biotin); not shown: His6-SUMO, N-terminal, cleaved
# T3 sequence (looked up): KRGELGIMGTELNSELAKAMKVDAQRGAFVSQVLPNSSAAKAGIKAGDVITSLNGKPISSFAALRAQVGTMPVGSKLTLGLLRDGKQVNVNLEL
# B1: DegP PDZ1-PDZ2 domain construct (DegP^261-448) (domain or fragment, E. coli K12, UniProt P0C0V0 287-474, looked up)
# chain: KRGELGIMGTELNSELAKAMKVDAQRGAFVSQVLPNSSAAKAGIKAGDVITSLNGKPISSFAALRAQVGTMPVGSKLTLGLLRDGKQVNVNLELQQSSQNQVDSSSIFNGIEGAEMSNKGKDQGVVVNNVKTGTPAAQIGLKKGDVIIGANQQAVKNIAELRKVLDSKPSVLALNIQRGDSTIYLLMQ
# notes: DegP protease, E. coli K12, PDZ1-PDZ2 domains, residues 261-448; numbers count on: the mature protein; Isotope-labelled for NMR; also called PDZ1-PDZ2 bidomain; pDS12; source: E. coli BL21 Star (λ DE3), purified (Ni2+ Sepharose, SENP1 cleavage, Superdex 75 Increase SEC); not shown: His6-SUMO, N-terminal, cleaved
# Experiments:
# [1] = molecular target: B1; test: NMR titration; substrates (p23, β-casein, nonactivating reporter peptide) added to the DegP PDZ domains (fig. S12); β-casein up to half equimolar ratio; conditions: both partners purified
# [2] = molecular target: the molecule itself; test: NMR line broadening and peak intensities ([13C,1H] spectra of side chains); [U-13C,15N]-PDZ1-PDZ2 alone at 25° to 50°C; Y444 Cα and ring resonances, M280 ε-methyl open and locked states
# [3] = molecular target: T1, DegP^S210A,Y444A (E. coli K12), P0C0V0; test: NMR pulsed field gradient diffusion (13C-methyl-filtered); [U-2H, Ile-δ1-13CH3]-DegP samples at 25°C; NMR buffer 25 mM potassium phosphate, 1 mM EDTA, 1 mM TCEP pH 7.0; oligomeric state from viscosity- and temperature-corrected translational diffusion coefficient against a calibration curve; hexamer to trimers; conditions: remark: other sources report otherwise
# [4] = molecular target: T1, DegP^S210A,Y444A (E. coli K12), P0C0V0; test: SEC; full-length DegP^S210A variants alone; 8°C stated for DegP^S210A,Y444A; trimer and hexamer species; conditions: remark: other sources report otherwise
# [5] = molecular target: the molecule itself; test: NMR pulsed field gradient diffusion (13C-methyl-filtered); DegP^S210A,M280I, temperature series (fig. S1, K and L); hexamer to trimers
# [6] = molecular target: the molecule itself; test: SEC; full-length DegP^S210A variants alone; 8°C stated for DegP^S210A,Y444A; trimer and hexamer species
# [7] = molecular target: the molecule itself; test: NMR pulsed field gradient diffusion (13C-methyl-filtered); [U-2H, Ile-δ1-13CH3]-DegP samples at 25°C; NMR buffer 25 mM potassium phosphate, 1 mM EDTA, 1 mM TCEP pH 7.0; oligomeric state from viscosity- and temperature-corrected translational diffusion coefficient against a calibration curve; hexamer to trimers
# [8] = molecular target: the molecule itself; test: NMR pulsed field gradient diffusion (13C-methyl-filtered); [U-2H, Ile-δ1-13CH3]-DegP samples at 43° and 50°C; NMR buffer pH 7.0; hexamer to trimers
# [9] = molecular target: T2, DegP PDZ1 domain (DegP^261-354); test: BLI; Octet RED96, 25°C; biotinylated PDZ2 on streptavidin biosensors, PDZ1 as analyte; steady-state analysis; 0.1% BSA, 0.05% Tween 20; association 30 s, dissociation 40 s; conditions: both partners purified
# biotinylated PDZ1 domain = molecular target: T3, biotinylated PDZ1 domain; test: BLI; Octet RED96, 25°C; biotinylated PDZ1 on streptavidin biosensors, PDZ2 as analyte; initial tests; conditions: both partners purified
binder,measurement,setting,value
"Abz-GNWVSAAKFETYR(NO3)SKNTQDYGILQI (reading uncertain; also: printed as Abz-GNWVSAAKFETYR^NO3^SKNTQDYGILQI, The superscript probably marks a nitrotyrosine quencher at Y12; also called fluorescent p23 peptide; source: synthetic peptide, bought: GenScript) [p23 peptide (Abz-GNWVSAAKFETYR^NO3SKNTQDYGILQI)]",binding result,[1],binds
B1,ratio of open to locked state of M280 at 37°C,[2],1
same,stoichiometry N,[2],2
"DegP^S210A,Y444A, P0C0V0 27-474 (enzyme) AETSSATTAQQMPSLAPMLEKVMPSVVSINVEGSTTVNTPRMPRNFQQFFGDDSPFCQEGSPFQSSPFCQGGQGGNGGGQQQKFMALGSGVIIDADKGYVVTNNHVVDNATVIKVQLSDGRKFDAKMVGKDPRSDIALIQIQNPKNLTAIKMADSDALRVGDYTVAIGNPFGLGETVTSGIVSALGRSGLNAENYENFIQTDAAINRGNAGGALVNLNGELIGINTAILAPDGGNIGIGFAIPSNMVKNLTSQMVEYGQVKRGELGIMGTELNSELAKAMKVDAQRGAFVSQVLPNSSAAKAGIKAGDVITSLNGKPISSFAALRAQVGTMPVGSKLTLGLLRDGKQVNVNLELQQSSQNQVDSSSIFNGIEGAEMSNKGKDQGVVVNNVKTGTPAAQIGLKKGDVIIGANQQAVKNIAELRKVLDSKPSVLALNIQRGDSTIALLMQ",stoichiometry N,[3],3
same,stoichiometry N,[4],3 and 6
"DegP^S210A,M280I (enzyme, E. coli K12, UniProt P0C0V0 27-474, looked up, numbers count on: the mature protein) AETSSATTAQQMPSLAPMLEKVMPSVVSINVEGSTTVNTPRMPRNFQQFFGDDSPFCQEGSPFQSSPFCQGGQGGNGGGQQQKFMALGSGVIIDADKGYVVTNNHVVDNATVIKVQLSDGRKFDAKMVGKDPRSDIALIQIQNPKNLTAIKMADSDALRVGDYTVAIGNPFGLGETVTSGIVSALGRSGLNAENYENFIQTDAAINRGNAGGALVNLNGELIGINTAILAPDGGNIGIGFAIPSNMVKNLTSQMVEYGQVKRGELGIMGTELNSELAKAIKVDAQRGAFVSQVLPNSSAAKAGIKAGDVITSLNGKPISSFAALRAQVGTMPVGSKLTLGLLRDGKQVNVNLELQQSSQNQVDSSSIFNGIEGAEMSNKGKDQGVVVNNVKTGTPAAQIGLKKGDVIIGANQQAVKNIAELRKVLDSKPSVLALNIQRGDSTIYLLMQ",binding result,[5],binds
"DegP^S210A,M280A (enzyme, E. coli K12, UniProt P0C0V0 27-474, looked up, numbers count on: the mature protein) AETSSATTAQQMPSLAPMLEKVMPSVVSINVEGSTTVNTPRMPRNFQQFFGDDSPFCQEGSPFQSSPFCQGGQGGNGGGQQQKFMALGSGVIIDADKGYVVTNNHVVDNATVIKVQLSDGRKFDAKMVGKDPRSDIALIQIQNPKNLTAIKMADSDALRVGDYTVAIGNPFGLGETVTSGIVSALGRSGLNAENYENFIQTDAAINRGNAGGALVNLNGELIGINTAILAPDGGNIGIGFAIPSNMVKNLTSQMVEYGQVKRGELGIMGTELNSELAKAAKVDAQRGAFVSQVLPNSSAAKAGIKAGDVITSLNGKPISSFAALRAQVGTMPVGSKLTLGLLRDGKQVNVNLELQQSSQNQVDSSSIFNGIEGAEMSNKGKDQGVVVNNVKTGTPAAQIGLKKGDVIIGANQQAVKNIAELRKVLDSKPSVLALNIQRGDSTIYLLMQ",stoichiometry N,[6],3 and 6
"DegP^S210A (full-length DegP, active site serine mutated) (enzyme, E. coli K12, UniProt P0C0V0 27-474, looked up, numbers count on: the mature protein; Isotope-labelled for NMR ([U-2H,15N] or [U-2H, Ile-d1-13CH3]); also called full-length DegP^S210A) AETSSATTAQQMPSLAPMLEKVMPSVVSINVEGSTTVNTPRMPRNFQQFFGDDSPFCQEGSPFQSSPFCQGGQGGNGGGQQQKFMALGSGVIIDADKGYVVTNNHVVDNATVIKVQLSDGRKFDAKMVGKDPRSDIALIQIQNPKNLTAIKMADSDALRVGDYTVAIGNPFGLGETVTSGIVSALGRSGLNAENYENFIQTDAAINRGNAGGALVNLNGELIGINTAILAPDGGNIGIGFAIPSNMVKNLTSQMVEYGQVKRGELGIMGTELNSELAKAMKVDAQRGAFVSQVLPNSSAAKAGIKAGDVITSLNGKPISSFAALRAQVGTMPVGSKLTLGLLRDGKQVNVNLELQQSSQNQVDSSSIFNGIEGAEMSNKGKDQGVVVNNVKTGTPAAQIGLKKGDVIIGANQQAVKNIAELRKVLDSKPSVLALNIQRGDSTIYLLMQ",stoichiometry N,[7],6
same,stoichiometry N,[8],3
"biotinylated PDZ2 domain (domain or fragment, E. coli K12, UniProt P0C0V0 385-474, looked up, biotin (EZ-Link NHS-PEG4-Biotin, molar ratio 1:1 at pH 6.0 to ensure preferential labeling of the N-terminal α-amino group), DegP protease, E. coli K12, PDZ2 domain, residues 359-448; numbers count on: the mature protein; m6 after biotinylation; immobilised on streptavidin biosensors; source: E. coli BL21 Star (λ DE3), purified, then biotinylated (EZ-Link NHS-PEG4-Biotin); not shown: His6-SUMO, N-terminal, cleaved) QNQVDSSSIFNGIEGAEMSNKGKDQGVVVNNVKTGTPAAQIGLKKGDVIIGANQQAVKNIAELRKVLDSKPSVLALNIQRGDSTIYLLMQ",Kd,[9],7.8 ± 0.9 µM
"DegP PDZ2 domain (DegP^359-448) (domain or fragment, E. coli K12, UniProt P0C0V0 385-474, looked up, DegP protease, E. coli K12, PDZ2 domain, residues 359-448; numbers count on: the mature protein; [U-15N]-labelled when observed in NMR titrations; also called pDS11; source: E. coli BL21 Star (λ DE3), purified (Ni2+ Sepharose, SENP1 cleavage, Superdex 75 Increase SEC); not shown: His6-SUMO, N-terminal, cleaved) QNQVDSSSIFNGIEGAEMSNKGKDQGVVVNNVKTGTPAAQIGLKKGDVIIGANQQAVKNIAELRKVLDSKPSVLALNIQRGDSTIYLLMQ",fold weakening of Kd against PDZ1 on biotinylated PDZ2,biotinylated PDZ1 domain,~10 fold
